Data taken from publication PMC6450514, “Pseudomonas aeruginosa esterase PA2949, a bacterial homolog of the human membrane esterase ABHD6: expression, purification and crystallization” (Acta Crystallographica. Section F, Structural Biology …, 2019).

Tested on: CCCC(=O)Oc1ccc([N+](=O)[O-])cc1
Test: purified protein
Conditions: 8 nM enzyme, 0.05-1 mM substrate, n-octyl beta-D-glucoside

PA2949 (Pseudomonas aeruginosa PAO1) showed a Km of 170 ± 10 µM and a kcat of 520.4 ± 31.7 s⁻¹.
